Measurements from publication PMC4731781, “The β2 clamp in the Mycobacterium tuberculosis DNA polymerase III αβ2ε replicase promotes polymerization and reduces exonuclease activity” (Scientific Reports, 2016).
Where two headings read alike, the source gives them in different places.

Assays:
[1] = molecular target: beta2 clamp (Escherichia coli) (UniProt P0A988); conditions: cited from earlier work
[2] = molecular target: beta2 clamp (Escherichia coli) (UniProt P0A988); conditions: cited from earlier work; remark: listed apart in the source
[3] = molecular target: T1, Mtb DNA Pol III δ subunit (HolA) (Mycobacterium tuberculosis, UniProt P71730 1-322); test: co-purification, densitometry of an SDS-PAGE gel; conditions: partners not purified
T1 sequence: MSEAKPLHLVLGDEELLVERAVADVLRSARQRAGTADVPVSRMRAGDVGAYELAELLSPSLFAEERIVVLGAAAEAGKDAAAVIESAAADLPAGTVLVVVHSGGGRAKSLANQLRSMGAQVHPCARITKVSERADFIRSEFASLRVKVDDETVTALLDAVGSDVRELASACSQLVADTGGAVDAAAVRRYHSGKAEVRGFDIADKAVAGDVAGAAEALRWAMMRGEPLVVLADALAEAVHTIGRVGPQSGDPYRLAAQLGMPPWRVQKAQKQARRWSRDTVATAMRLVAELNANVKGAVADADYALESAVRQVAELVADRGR

[4] = molecular target: T2, Mtb DNA Pol III δ’ subunit (HolB) (Mycobacterium tuberculosis, UniProt Q7D554 1-404); test: co-purification, densitometry of an SDS-PAGE gel; conditions: partners not purified
T2 sequence: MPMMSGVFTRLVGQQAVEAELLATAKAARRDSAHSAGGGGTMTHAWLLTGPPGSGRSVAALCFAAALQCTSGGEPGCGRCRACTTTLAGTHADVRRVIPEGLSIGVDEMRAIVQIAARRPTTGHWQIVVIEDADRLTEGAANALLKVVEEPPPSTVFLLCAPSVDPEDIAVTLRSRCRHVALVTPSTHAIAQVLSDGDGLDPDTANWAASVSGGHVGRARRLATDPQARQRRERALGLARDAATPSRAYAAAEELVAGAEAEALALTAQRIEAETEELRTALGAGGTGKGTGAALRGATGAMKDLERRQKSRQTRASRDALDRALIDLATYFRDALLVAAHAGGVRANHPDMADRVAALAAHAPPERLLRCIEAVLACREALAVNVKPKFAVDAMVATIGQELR

[5] = molecular target: T3, Mtb DNA Pol III α subunit (DnaE1), purified recombinant (Mycobacterium tuberculosis, UniProt P9WNT7 1-1184); test: SPR; BIAcore3000, β subunit amine-coupled to the chip (about 1800 RU); α injected at 0.01, 0.1 and 1 μM in 50 mM HEPES pH 7.5, 100 mM NaCl, 0.005% Tween20, 30 μl/min; global fit to a 1:1 Langmuir model; conditions: both partners purified
T3 construct: also called Mtb α; MtbDnaE1; source: E. coli, purified
T3 sequence: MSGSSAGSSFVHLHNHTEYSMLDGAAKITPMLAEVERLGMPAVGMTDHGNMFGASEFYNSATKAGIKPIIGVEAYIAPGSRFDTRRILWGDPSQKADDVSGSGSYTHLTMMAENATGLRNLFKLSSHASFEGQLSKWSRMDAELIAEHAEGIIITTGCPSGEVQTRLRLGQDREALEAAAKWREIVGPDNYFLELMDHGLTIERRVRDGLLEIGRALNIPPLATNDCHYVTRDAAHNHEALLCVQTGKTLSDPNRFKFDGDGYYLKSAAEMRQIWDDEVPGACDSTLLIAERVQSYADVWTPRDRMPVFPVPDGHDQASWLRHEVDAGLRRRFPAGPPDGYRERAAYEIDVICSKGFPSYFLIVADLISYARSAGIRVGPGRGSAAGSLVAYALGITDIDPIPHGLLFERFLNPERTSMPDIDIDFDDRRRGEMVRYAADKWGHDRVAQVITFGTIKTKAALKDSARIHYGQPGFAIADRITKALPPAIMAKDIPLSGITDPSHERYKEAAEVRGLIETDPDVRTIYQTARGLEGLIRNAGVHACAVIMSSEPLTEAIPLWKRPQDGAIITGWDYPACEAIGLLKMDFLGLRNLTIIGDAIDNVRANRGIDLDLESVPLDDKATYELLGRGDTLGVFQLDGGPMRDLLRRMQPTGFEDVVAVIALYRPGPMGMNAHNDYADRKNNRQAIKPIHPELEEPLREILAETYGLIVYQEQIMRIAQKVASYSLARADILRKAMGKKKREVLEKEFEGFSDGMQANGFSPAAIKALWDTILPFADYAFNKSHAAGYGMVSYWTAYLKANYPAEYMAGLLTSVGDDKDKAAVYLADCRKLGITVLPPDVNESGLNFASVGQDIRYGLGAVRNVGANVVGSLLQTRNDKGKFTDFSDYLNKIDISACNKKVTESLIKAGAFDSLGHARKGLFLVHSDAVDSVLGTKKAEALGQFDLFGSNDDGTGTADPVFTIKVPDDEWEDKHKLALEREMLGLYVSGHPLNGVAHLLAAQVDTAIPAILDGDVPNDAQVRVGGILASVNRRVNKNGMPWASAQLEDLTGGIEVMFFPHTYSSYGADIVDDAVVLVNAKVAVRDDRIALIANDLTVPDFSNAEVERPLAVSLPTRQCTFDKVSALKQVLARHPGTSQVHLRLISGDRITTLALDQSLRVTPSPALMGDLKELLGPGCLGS

beta2 clamp (Escherichia coli), sequence (P0A988 whole entry): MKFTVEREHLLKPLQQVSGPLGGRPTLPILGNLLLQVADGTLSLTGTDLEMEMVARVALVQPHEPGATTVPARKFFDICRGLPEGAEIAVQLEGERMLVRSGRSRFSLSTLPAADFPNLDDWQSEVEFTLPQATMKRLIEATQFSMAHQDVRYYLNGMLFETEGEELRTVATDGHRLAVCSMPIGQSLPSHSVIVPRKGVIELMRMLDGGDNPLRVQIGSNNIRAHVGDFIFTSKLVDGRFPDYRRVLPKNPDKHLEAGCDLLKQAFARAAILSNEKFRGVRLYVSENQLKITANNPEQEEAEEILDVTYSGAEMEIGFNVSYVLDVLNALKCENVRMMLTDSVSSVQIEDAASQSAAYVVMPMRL

Molecule: DNA polymerase III alpha (from UniProt P10443)
- Kd [1]: 1200 nM

Molecule: DNA polymerase III epsilon (from UniProt P03007)
- Kd [2]: 200000 nM

B1: Mtb DNA Pol III τ subunit (DnaZX) (natural protein)
chain: MALYRKYRPASFAEVVGQEHVTAPLSVALDAGRINHAYLFSGPRGCGKTSSARILARSLNCAQGPTANPCGVCESCVSLAPNAPGSIDVVELDAASHGGVDDTRELRDRAFYAPVQSRYRVFIVDEAHMVTTAGFNALLKIVEEPPEHLIFIFATTEPEKVLPTIRSRTHHYPFRLLPPRTMRALLARICEQEGVVVDDAVYPLVIRAGGGSPRDTLSVLDQLLAGAADTHVTYTRALGLLGVTDVALIDDAVDALAACDAAALFGAIESVIDGGHDPRRFATDLLERFRDLIVLQSVPDAASRGVVDAPEDALDRMREQAARIGRATLTRYAEVVQAGLGEMRGATAPRLLLEVVCARLLLPSASDAESALLQRVERIETRLDMSIPAPQAVPRPSAAAAEPKHQPAREPRPVLAPTPASSEPTVAAVRSMWPTVRDKVRLRSRTTEVMLAGATVRALEDNTLVLTHESAPLARRLSEQRNADVLAEALKDALGVNWRVRCETGEPAAAASPVGGGANVATAKAVNPAPTANSTQRDEEEHMLAEAGRGDPSPRRDPEEVALELLQNELGARRIDNA
notes: Three copies in the clamp loader τ3δδ’ by densitometry
- stoichiometry N [3]: 3 τ per δ
- stoichiometry N [4]: 3 τ per δ’

B2: Mtb DNA Pol III β2 clamp (DnaN), purified recombinant (natural protein)
chain: MDAATTRVGLTDLTFRLLRESFADAVSWVAKNLPARPAVPVLSGVLLTGSDNGLTISGFDYEVSAEAQVGAEIVSPGSVLVSGRLLSDITRALPNKPVDVHVEGNRVALTCGNARFSLPTMPVEDYPTLPTLPEETGLLPAELFAEAISQVAIAAGRDDTLPMLTGIRVEILGETVVLAATDRFRLAVRELKWSASSPDIEAAVLVPAKTLAEAAKAGIGGSDVRLSLGTGPGVGKDGLLGISGNGKRSTTRLLDAEFPKFRQLLPTEHTAVATMDVAELIEAIKLVALVADRGAQVRMEFADGSVRLSAGADDVGRAEEDLVVDYAGEPLTIAFNPTYLTDGLSSLRSERVSFGFTTAGKPALLRPVSGDDRPVAGLNGNGPFPAVSTDYVYLLMPVRLPG
notes: DNA polymerase III β subunit (sliding clamp) DnaN of Mycobacterium tuberculosis; also called β subunit; β clamp
- Kd [5]: 10.9 nM
